The chains are these.
B1: CPEB3 Ribozyme (parent)
chain: UAACAGGGGGCCACAGCAGAAGCGUUCACGUCGCAGCCCCUGUCAGAUUCUGGUGAAUCUGCGAAUUCUGCUGUAUAUCUC

Variants of B1 are the subject of the series. Nature of the series: self-cleavage, relative activity (ratio to wild type); higher = more cleavage; in vitro, sequencing. In a few lines: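 Barcoded CPEB3 ribozyme mutants, produced by rounds of error-prone PCR, self-cleaved while being transcribed with T7 RNA polymerase for 5 hours at 37°C and during a subsequent 15 min DNase I step before EDTA was added. Sequencing of template-switched cDNA on Illumina gave cleaved and total reads, and DNA sequencing assigned barcodes to variants. Each variant's relative activity is its cleaved/total read fraction divided by the unmutated ribozyme's fraction, averaged across three batches. A variant needed a minimum of 5 reads.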
On to U1A G63A, for which the self-cleavage worked out at 0.89.
A13U A64C: the self-cleavage was 0.27.
Consider G7A U54C, for which the self-cleavage amounted to 0.38.
Then U49G A56U, with 0.65; and U58C A77U, with 0.65; and C11U A35G, with 1.27.
Consider G10C G42U, for which the self-cleavage turned out to be 0.16.
For C29G A75G the value was 0.21; for C59A A77G, 0.31.
Take A2G C27A: the self-cleavage is 0.36.
With C12G G52A, the self-cleavage is 0.49.
With U1A G22A, the self-cleavage was determined as 0.23.
For the variant A35G A57U, the self-cleavage turned out to be 1.22.
Take U43C U67A: the self-cleavage came out at 0.36.
As to U43A U60C, the self-cleavage stood at 0.54.
Take G6A U72A: the self-cleavage worked out at 0.2.
Take C17U U58C: the self-cleavage is 0.17.
As for A5G A21G, the self-cleavage is 0.43.
With A15C A20U, the self-cleavage came to 0.35.
A13G U25C: the self-cleavage was 0.36.
Regarding A28U U80A, the self-cleavage is 0.71.
Then G36C A57U, with 0.13; and G46A U67C, with 0.15.
Take A65G C79A: the self-cleavage stood at 0.67.
For A35U C50A the value was 0.43.
Consider A15C A65G, for which the self-cleavage amounted to 0.46.
For G33U U51C, the self-cleavage stood at 0.09.
For the variant U26G C59A, the self-cleavage is 0.16.
As to U49G, the self-cleavage turned out to be 0.52.
Then C62U A77U, with 0.17; and C23G U54A, with 0.26; and C50A U54A, with 0.88.
Then A18C A21G, with 0.21; and A5G G52U, with 0.73; and U60G U66C, with 0.15.
G33A U43A: the self-cleavage came out at 0.32.
Consider A45C U48C, for which the self-cleavage was 0.4.
As to A15U C34U, the self-cleavage came out at 0.29.
Then G24U U31C, with 0.37.
For C44A A45G the value was 0.61.
Turning to U51C U74C, the self-cleavage came out at 1.21.
As for C71U U78C, the self-cleavage was determined as 0.77.
As for G30A A56G, the self-cleavage was 0.37.
On to U49C U80C, for which the self-cleavage is 0.61.
Then U1C U72C, with 0.82; and G10C U76C, with 0.19; and G55A U69G, with 0.34.
As to C50U U80C, the self-cleavage was determined as 1.07.
For G63C U78A the value was 1.01; for C23A A56G, 0.2; for A28G U60G, 0.16.
In the case of C14A U41C, the self-cleavage was 1.22.
In the case of G33A G70U, the self-cleavage worked out at 0.71.
Consider G22U G46A, for which the self-cleavage is 0.17.
Regarding C37A U67A, the self-cleavage was 0.14.
With U43A G46U, the self-cleavage was determined as 0.45.
For G24U U80A, the self-cleavage came to 0.22.
For the variant U31C A77G, the self-cleavage worked out at 0.94.
In the case of G8C A13U, the self-cleavage was found to be 0.16.
G22A U48A: the self-cleavage came to 0.07.
Then A18G C62A, with 0.23; and A47G A56U, with 0.45; and C59A U60A, with 0.31.
With G8C G55A, the self-cleavage amounted to 0.37.
Regarding A45U U54C, the self-cleavage was found to be 0.53.
As to G10A A57U, the self-cleavage worked out at 0.05.
A15G C29U: the self-cleavage was 0.41.
In the case of A5G U67A, the self-cleavage amounted to 0.39.
For A35G C39A the value was 0.95.
For A21U U31C, the self-cleavage amounted to 0.3.
For U31C A75U, the self-cleavage stood at 0.87.
Take G7U G73U: the self-cleavage is 0.23.
Consider A5G U60A, for which the self-cleavage was 0.31.
As to C11A U25A, the self-cleavage was 0.45.
For A2U G9A the value was 0.15.
Turning to A18G C23U, the self-cleavage turned out to be 0.12.
For U41C the value was 1.09.
For U31A U72A, the self-cleavage stood at 0.41.
With U31C U74A, the self-cleavage came to 1.18.
As for G22U U43C, the self-cleavage amounted to 0.3.
Consider A28G C71A, for which the self-cleavage turned out to be 0.14.
Then A57G G73U, with 1.15; and U49A U51A, with 0.45.
For G8C U67C the value was 0.15; for C38A G73C, 0.45.
In the case of U26A A65G, the self-cleavage turned out to be 0.38.
On to U25C C34U, for which the self-cleavage was 0.25.
As to A20U A64U, the self-cleavage came out at 0.26.
C4A U76A: the self-cleavage was determined as 1.2.
As to G22U A75C, the self-cleavage is 0.23.
As to U1A A45G, the self-cleavage was 0.75.
Regarding A3U C40A, the self-cleavage is 0.54.
C29U C68U: the self-cleavage amounted to 0.42.
With G7C A75U, the self-cleavage is 0.31.
Take C29G C59A: the self-cleavage is 0.1.
For the variant A65U U67C, the self-cleavage is 0.28.
Take U76C U78C: the self-cleavage was found to be 1.01.
G46C U76C: the self-cleavage came to 0.5.
For A15C U58G, the self-cleavage came out at 0.29.
On to A3G C11U, for which the self-cleavage worked out at 0.51.
On to G10U G52U, for which the self-cleavage was found to be 0.09.
On to A18G U41A, for which the self-cleavage was found to be 0.26.
Then A18G A45C, with 0.3; and U1C U67C, with 0.26; and U1C U67G, with 0.22.
For G9C A64U the value was 0.23; for G63U U74A, 1.29; for C11U A75G, 0.32.
For U51A A75G the value was 0.86.
On to U1C U78G, for which the self-cleavage turned out to be 0.94.
Consider U41C U60C, for which the self-cleavage was found to be 0.55.
For A28U A35G, the self-cleavage amounted to 1.22.
As to A57G G70A, the self-cleavage was 0.49.
As to A13U G19A, the self-cleavage turned out to be 0.17.
U41A U58A: the self-cleavage was determined as 0.22.
As for A13U G70A, the self-cleavage stood at 0.48.
Turning to A18U U25G, the self-cleavage was 0.08.
In the case of G9C U72C, the self-cleavage is 0.37.
Then U1A C68U, with 0.82; and U31A C68U, with 0.54; and C11A A56U, with 0.12.
For G10A C38U the value was 0.08.
As to U48G A56G, the self-cleavage is 0.28.
For A35C G55U the value was 0.81.
G24U A47G: the self-cleavage is 0.31.
On to A18G A47C, for which the self-cleavage was found to be 0.12.
Then C32U U76C, with 0.2.
With G8A A47G, the self-cleavage was determined as 0.23.
Then U26A U41A, with 0.25; and A5G G33A, with 0.24; and G55A G61A, with 0.39.
For A13U A45U, the self-cleavage was determined as 0.69.
For the variant A18G C32A, the self-cleavage is 0.15.
Take U43C U80C: the self-cleavage was 0.68.
For U25G A56G, the self-cleavage is 0.4.
Turning to U48A U78C, the self-cleavage is 0.35.
Turning to G7C A56G, the self-cleavage was found to be 0.23.
In the case of A15C U25A, the self-cleavage stood at 0.23.
As to G53A A77G, the self-cleavage turned out to be 1.18.
Turning to A13C A20G, the self-cleavage came out at 0.72.
Regarding U54A G63A, the self-cleavage stood at 0.95.
Regarding A15C U26C, the self-cleavage amounted to 0.36.
Then U66G U69A, with 0.47; and A13C U76A, with 1.18.
Then C32A C40A, with 0.11; and A5G A75G, with 0.49.
With G46U U67C, the self-cleavage turned out to be 0.03.
As to A56G C62U, the self-cleavage stood at 0.31.
Take G8A A57U: the self-cleavage was 0.11.
C17U G73A: the self-cleavage worked out at 1.09.
For U31A U80C, the self-cleavage was determined as 0.66.
With G53A G70U, the self-cleavage came out at 0.44.
Take U49G U60C: the self-cleavage was 0.23.
Turning to A18C U58C, the self-cleavage worked out at 0.3.
For G10U U78C the value was 0.39.
For A21G A57U, the self-cleavage amounted to 0.38.
Take C11A A45G: the self-cleavage is 0.41.
For A75C, the self-cleavage is 1.2.
On to U31A U41G, for which the self-cleavage stood at 0.29.
Then G52U G63A, with 0.99; and G9A C40U, with 0.08; and A56C, with 0.63.
For A56G C71U, the self-cleavage amounted to 0.51.
Consider G8U U54C, for which the self-cleavage came to 0.14.
With G6A U41A, the self-cleavage was found to be 0.26.
Then A18U G52A, with 0.39.
Then G9A A77C, with 0.17.

The values are drawn from the RNAGym collection of RNA variant scans (doi:10.1093/nar/gkz1192).
